From patent US20260209386A1 (MYTHIC THERAPEUTICS, published 2026)
Residue numbers refer to the chain shown, from its start.

T1: Human PTK7 Protein, His Tag, Acro Biosystems (human, UniProt Q13308 31-704)
T1 construct: Bought protein; also called CCK4; not shown: His tag
T1 sequence: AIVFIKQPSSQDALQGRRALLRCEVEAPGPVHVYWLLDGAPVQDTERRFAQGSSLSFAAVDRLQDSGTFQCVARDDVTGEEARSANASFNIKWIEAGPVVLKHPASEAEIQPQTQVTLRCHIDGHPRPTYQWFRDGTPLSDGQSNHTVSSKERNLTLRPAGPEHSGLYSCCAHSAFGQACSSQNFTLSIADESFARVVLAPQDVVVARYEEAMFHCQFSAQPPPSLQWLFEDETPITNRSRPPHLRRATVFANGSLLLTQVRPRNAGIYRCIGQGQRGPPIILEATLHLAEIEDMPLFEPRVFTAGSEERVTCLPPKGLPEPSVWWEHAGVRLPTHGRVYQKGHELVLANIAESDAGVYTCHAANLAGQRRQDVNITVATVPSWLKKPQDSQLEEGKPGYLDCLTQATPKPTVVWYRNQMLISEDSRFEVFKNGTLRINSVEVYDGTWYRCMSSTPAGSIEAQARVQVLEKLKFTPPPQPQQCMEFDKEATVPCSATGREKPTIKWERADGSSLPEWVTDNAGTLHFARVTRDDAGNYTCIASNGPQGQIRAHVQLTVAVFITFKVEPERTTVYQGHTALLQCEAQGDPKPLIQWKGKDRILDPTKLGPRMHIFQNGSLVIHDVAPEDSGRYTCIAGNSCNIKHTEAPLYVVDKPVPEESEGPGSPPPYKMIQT

T2: Human PTK7 Protein, His Tag, Acro Biosystems (human, UniProt Q13308 31-704)
T2 construct: Bought recombinant protein; also called CCK4; not shown: His tag
T2 sequence: T1 sequence

B1: MYT11182 (antibody, V domains shown)
VH: EVQLVESGGGLVQPGGSLRLSCTASGIHLSSYVMGWVRQAPGKGLEWVGYIYGGGGTYYATWARGRFTISRDTSKNTVYLQMNSLRAEDTAVYFCARAAADFYFNLWGQGTLVTVSS
VL: EIVMTQSPSTLSASVGDRVIITCQASQSISSYLAWYQQKPGKAPKLLIYDISDLASGVPSRFSGSGSGAEFTLTISSLQPDDFATYYCQSYYWISNSGAAFGQGTKLTVL
notes: HC variant of MYT9460, sub at HCV pos 28 (H1 03)
B2: MYT11180 (antibody, V domains shown)
VH: B1 VH with G26H, H28D
VL: B1 VL
notes: HC variant of MYT9460, sub at HCV pos 26 (H1 01)
B3: MYT11192 (antibody, V domains shown)
VH: B1 VH with H28D, Y52H
VL: B1 VL
notes: HC variant of MYT9460, sub at HCV pos 52 (H2 03)
B4: MYT11184 (antibody, V domains shown)
VH: B1 VH with H28D, S30H
VL: B1 VL
notes: HC variant of MYT9460, sub at HCV pos 30 (H1 05)
B5: MYT10889 (antibody, V domains shown)
VH: EVQLVESGGGLVQPGGSLRLSCTASGFSLHNYVMNWVRQAPGKGLEWVGIIDSSGSTYYASWAKGRFTISRDTSKNTVYLQMNSLRAEDTAVYFCARGLYLWGQGTLVTVSS
VL: EIVMTQSPSTLSASVGDRVIITCQSSQSVYNNNLLAWYQQKPGKAPKLLIYYTSNLASGVPSRFSGSGSGAEFTLTISSLQPDDFATYYCQGGYNGNIYAFGQGTKLTVL
notes: MYT9345 variant, His at VH pos 30 (H1 05)
B6: MYT10898 (antibody, V domains shown)
VH: B5 VH with H30S, S53H
VL: B5 VL
notes: MYT9345 variant, His at VH pos 53 (H2 04)
B7: MYT10942 (antibody, V domains shown)
VH: B5 VH with H30S
VL: B5 VL with Y94H
notes: MYT9345 variant, His at VL pos 94 (L3 04)
B8: MYT10896 (antibody, V domains shown)
VH: B5 VH with H30S, I51H
VL: B5 VL
notes: MYT9345 variant, His at VH pos 51 (H2 02)
B9: MYT10936 (antibody, V domains shown)
VH: B5 VH with H30S
VL: B5 VL with L56H
notes: MYT9345 variant, His at VL pos 56 (L2 05)
B10: MYT10918 (antibody, V domains shown)
VH: B5 VH with H30S, D52A
VL: B5 VL
notes: MYT9345 variant, Ala at VH pos 52 (H2 03)
B11: MYT10935 (antibody, V domains shown)
VH: B5 VH with H30S
VL: B5 VL with N55H
notes: MYT9345 variant, His at VL pos 55 (L2 04)
B12: MYT10939 (antibody, V domains shown)
VH: B5 VH with H30S
VL: B5 VL with Q91H
notes: MYT9345 variant, His at VL pos 91 (L3 01)
B13: MYT10949 (antibody, V domains shown)
VH: B5 VH with H30S
VL: B5 VL with T108E, V109I, L110K
notes: MYT9345 LC variant; substitution position printed as n/a
B14: MYT10920 (antibody, V domains shown)
VH: B5 VH with H30S
VL: B5 VL with S25H
notes: MYT9345 variant, His at VL pos 25 (L1 02)
B15: MYT10903 (antibody, V domains shown)
VH: B5 VH with H30S, Y58H
VL: B5 VL
notes: MYT9345 variant, His at VH pos 58 (H2 09)
B16: MYT10950 (antibody, V domains shown)
VH: B5 VH with H30S
VL: B5 VL with N95A
notes: MYT9345 variant, Ala at VL pos 95 (L3 05)
B17: MYT10928 (antibody, V domains shown)
VH: B5 VH with H30S
VL: B5 VL with N33H
notes: MYT9345 variant, His at VL pos 33 (L1 10)
B18: MYT10930 (antibody, V domains shown)
VH: B5 VH with H30S
VL: B5 VL with L35H
notes: MYT9345 variant, His at VL pos 35 (L1 12)
B19: MYT10926 (antibody, V domains shown)
VH: B5 VH with H30S
VL: B5 VL with N31H
notes: MYT9345 variant, His at VL pos 31 (L1 08)
B20: MYT10891 (antibody, V domains shown)
VH: B5 VH with H30S, Y32H
VL: B5 VL
notes: MYT9345 variant, His at VH pos 32 (H1 07)
B21: MYT10916 (antibody, V domains shown)
VH: B5 VH with H30S, L101H
VL: B5 VL
notes: MYT9345 variant, His at VH pos 101 (H3 06)
B22: MYT10944 (antibody, V domains shown)
VH: B5 VH with H30S
VL: B5 VL with G96H
notes: MYT9345 variant, His at VL pos 96 (L3 06)
B23: MYT10925 (antibody, V domains shown)
VH: B5 VH with H30S
VL: B5 VL with Y30H
notes: MYT9345 variant, His at VL pos 30 (L1 07)
B24: MYT10937 (antibody, V domains shown)
VH: B5 VH with H30S
VL: B5 VL with A57H
notes: MYT9345 variant, His at VL pos 57 (L2 06)
B25: MYT10905 (antibody, V domains shown)
VH: B5 VH with H30S, A60H
VL: B5 VL
notes: MYT9345 variant, His at VH pos 60 (H2 11)
B26: MYT10946 (antibody, V domains shown)
VH: B5 VH with H30S
VL: B5 VL with I98H
notes: MYT9345 variant, His at VL pos 98 (L3 08)
B27: MYT10895 (antibody, V domains shown)
VH: B5 VH with H30S, I50H
VL: B5 VL
notes: MYT9345 variant, His at VH pos 50 (H2 01)
B28: MYT10927 (antibody, V domains shown)
VH: B5 VH with H30S
VL: B5 VL with N32H
notes: MYT9345 variant, His at VL pos 32 (L1 09)
B29: MYT10911 (antibody, V domains shown)
VH: B5 VH with H30S, A96H
VL: B5 VL
notes: MYT9345 variant, His at VH pos 96 (H3 01)
B30: MYT10943 (antibody, V domains shown)
VH: B5 VH with H30S
VL: B5 VL with N95H
notes: MYT9345 variant, substitution at VL pos 95 (L3 05), no Ala mark

Target: T1, Human PTK7 Protein, His Tag, Acro …
Assay: BLI (Octet), antibody on anti-human Fc sensor, 50 nM PTK7, dissociation at pH 7.4 or 5.4; 1 = pH dependent binding relative to parent

Binding result, binds:
B1, B2, B3, B4

Target: T2, Human PTK7 Protein, His Tag, Acro …
Assay: BLI (Octet), antibody on anti-human Fc sensor, 50 nM PTK7 at pH 7.4, dissociation at pH 7.4 or 5.4; 1 = pH dependent binding relative to parent

Binding result, binds:
B5, B6, B7, B8, B9, B10, B11, B12, B13, B14, B15, B16, B17, B18, B19, B20, B21, B22, B23, B24, B25, B26, B27, B28, B29, B30
